Laboratory results as given in publication PMC2843729.

Target: mouse CNPase catalytic domain containing the C-terminal tail (construct 6-2) (mouse)
Test: SEC; HiLoad 16/60 Superdex 200, after Ni-TED purification and TEV cleavage; dimer to monomers

stoichiometry N: 2
Substance: mouse CNPase catalytic domain containing the C-terminal tail (construct 6-2) (domain or fragment)
